For this experiment, the target named is strepII-flag-PLXA fusion protein displayed on engineered extracellular vesicles (strepII-flag-PLXA-EV) (Homo sapiens (Human)) (UniProt Q9UIW2). The experiment is described as follows: in vitro co-incubation of EVs with FITC-streptactin (10000:1), nanoflow cytometry, share of FITC-positive EVs.
Chain of UniProt Q9UIW2 (Q9UIW2 863-1316 limits assumed, change not shown): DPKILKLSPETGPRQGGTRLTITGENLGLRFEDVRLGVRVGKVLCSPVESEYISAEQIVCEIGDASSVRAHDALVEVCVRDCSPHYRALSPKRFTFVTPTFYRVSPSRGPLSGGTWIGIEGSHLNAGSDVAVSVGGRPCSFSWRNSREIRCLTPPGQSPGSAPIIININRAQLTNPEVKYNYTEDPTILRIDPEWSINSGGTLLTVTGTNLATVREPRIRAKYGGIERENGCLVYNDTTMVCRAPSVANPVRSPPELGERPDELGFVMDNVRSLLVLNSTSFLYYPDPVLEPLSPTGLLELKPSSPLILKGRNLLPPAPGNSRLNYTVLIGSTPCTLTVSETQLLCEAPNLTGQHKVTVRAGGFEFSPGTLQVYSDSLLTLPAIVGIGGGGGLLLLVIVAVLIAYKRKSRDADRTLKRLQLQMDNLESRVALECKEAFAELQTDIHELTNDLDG

In the case of FITC-streptactin, the positive rate was 73%.

The record behind these values is US20260015398A1.
